The values that follow come from US20060223096A1 (GLYCART BIOTECHNOLOGY, published 2006).

B1: M-HLE1 heavy chain paired with the light chain construct M-KV4 (antibody, V domains shown)
VH: EVQLVESGGGLVKPGGSLRLSCAASGFTFSNYWMNWVRQAPGKGLEWVGEIRLKSNNFGRYYAQKFQERVTITRDMSTSTAYMELSSLRSEDTAVYYCAAYGNYVGHYFDHWGQGTTVTVSS
VL: DIQLTQSPSFLSASVGDRVTITCKASQNVDTNVAWYQQKPGKAPEPLLFSASYRYTGVPSRFSGSGSGTEFTLTISSLQPEDFATYYCQQYNSYPLTFGGGTKVEIKR
notes: also called M-HLE1/M-KV4
B2: M-HLC heavy chain combined with the light chain construct M-KV3 (antibody, V domains shown)
VH: QVQLVQSGAEVKKPGASVKVSCKASGYTFTNYWMNWVRQAPGQGLEWMGEIRLKSNNFGRYYAESVKGRVTITRDTSMSTAYMELSSLRSEDTAVYYCAAYGNYVGHYFDHWGQGTTVTVSS
VL: DIQLTQSPSFLSASVGDRVTVTCKASQNVDTNVAWYQQKPGKAPEPLLFSASYRYTGVPSRFSGSGSGTEFTLTISSLQPEDFATYYCQQYNSYPLTFGGGTKVEIKR
notes: also called M-HLC/M-KV3
B3: M-HLB heavy chain combined with the light chain construct M-KV3 (antibody, V domains shown)
VH: QVQLVQSGAEVKKPGASVKVSCKASGYTFTNYWMNWVRQAPGQGLEWMGEIRLKSNNFGRYYAQKFQGRVTITRDTSMSTAYMELSSLRSEDTAVYYCAAYGNYVGHYFDHWGQGTTVTVSS
VL: DIQLTQSPSFLSASVGDRVTVTCKASQNVDTNVAWYQQKPGKAPEPLLFSASYRYTGVPSRFSGSGSGTEFTLTISSLQPEDFATYYCQQYNSYPLTFGGGTKVEIKR
notes: also called M-HLB/M-KV3
B4: M-HLD heavy chain paired with the M-KV9 light chain (antibody, V domains shown)
VH: QVQLVQSGAEVKKPGASVKVSCKASGFTFSNYWMNWVRQAPGQGLEWMGEIRLKSNNFGRYYAESVKGRVTITRDTSMSTAYMELSSLRSEDTAVYYCAAYGNYVGHYFDHWGQGTTVTVSS
VL: DIQLTQSPSFLSASVGDRVTITCKASQNVDTNVAWYQQKPGQAPRPLIYSASYRYTGVPSRFSGSGSGTEFTLTISSLQPEDFATYYCQQYNSYPLTFGGGTKVEIKR
notes: also called M-HLD/M-KV9
B5: M-HLE2 heavy chain paired with the light chain construct M-KV4 (antibody, V domains shown)
VH: EVQLVESGGGLVKPGGSLRLSCAASGFTFSNYWMNWVRQAPGKGLEWVGEIRLKSNNFGRYYAESVKGRVTITRDMSTSTAYMELSSLRSEDTAVYYCAAYGNYVGHYFDHWGQGTTVTVSS
VL: DIQLTQSPSFLSASVGDRVTITCKASQNVDTNVAWYQQKPGKAPEPLLFSASYRYTGVPSRFSGSGSGTEFTLTISSLQPEDFATYYCQQYNSYPLTFGGGTKVEIKR
notes: also called M-HLE2/M-KV4
B6: M-HLA heavy chain combined with the light chain construct M-KV3 (antibody, V domains shown)
VH: QVQLVQSGAEVKKPGASVKVSCKASGYTFTNYWMNWVRQAPGQGLEWMGEIRLKSNNFGRYYAQKFQGRVTMTRDTSTSTVYMELSSLRSEDTAVYYCARYGNYVGHYFDHWGQGTTVTVSS
VL: DIQLTQSPSFLSASVGDRVTVTCKASQNVDTNVAWYQQKPGKAPEPLLFSASYRYTGVPSRFSGSGSGTEFTLTISSLQPEDFATYYCQQYNSYPLTFGGGTKVEIKR
notes: also called M-HLA/M-KV3
B7: M-KV3 light chain coexpressed with murine 225.28S heavy chain (mVH) (antibody, V domains shown)
VH: QVKLQQSGGGLVQPGGSMKLSCVVSGFTFSNYWMNWVRQSPEKGLEWIAEIRLKSNNFGRYYAESVKGRFTISRDDSKSSAYLQMINLRAEDTGIYYCTSYGNYVGHYFDHWGQGTTVTVSS
VL: DIQLTQSPSFLSASVGDRVTVTCKASQNVDTNVAWYQQKPGKAPEPLLFSASYRYTGVPSRFSGSGSGTEFTLTISSLQPEDFATYYCQQYNSYPLTFGGGTKVEIKR
notes: The VL entry ends in KRT; also called mVH/M-KV3
B8: M-HHB heavy chain coexpressed with murine 225.28S light chain (mVL) (antibody, V domains shown)
VH: EVQLVESGGGLVKPGGSLRLSCAASGFTFSNYWMNWVRQAPGKGLEWVGEIRLKSNNFGRYYAESVKGRFTISRDDSKNTLYLQMNSLKTEDTAVYYCTSYGNYVGHYFDHWGQGTTVTVSS
VL: DIELTQSPKFMSTSVGDRVSVTCKASQNVDTNVAWYQQKPGQSPEPLLFSASYRYTGVPDRFTGSGSGTDFTLTISNVQSEDLAEYFCQQYNSYPLTFGGGTKLEIK
notes: also called M-HHB/mVL
B9: humanized M-HLG/M-KV9 construct of the 225.28S antibody (antibody, V domains shown)
VH: EVQLVESGGGLVQPGGSLRLSCAASGFTFSNYWMNWVRQAPGKGLEWVAEIRLKSNNFGRYYAASVKGRFTISRDDSKNTLYLQMNSLKTEDTAVYYCTTYGNYVGHYFDHWGQGTTVTVSS
VL: DIQLTQSPSFLSASVGDRVTITCKASQNVDTNVAWYQQKPGQAPRPLIYSASYRYTGVPSRFSGSGSGTEFTLTISSLQPEDFATYYCQQYNSYPLTFGGGTKVEIKR
notes: also called M-KV9 together with M-HLG
B10: M-KV5 light chain paired with the M-HHB heavy chain (antibody, V domains shown)
VH: EVQLVESGGGLVKPGGSLRLSCAASGFTFSNYWMNWVRQAPGKGLEWVGEIRLKSNNFGRYYAESVKGRFTISRDDSKNTLYLQMNSLKTEDTAVYYCTSYGNYVGHYFDHWGQGTTVTVSS
VL: DIQLTQSPSFLSASVGDRVTITCKASQNVDTNVAWYLQKPGQSPQLLIYSASYRYTGVPSRFSGSGSGTEFTLTISSLQPEDFATYYCQQYNSYPLTFGGGTKVEIKR
notes: also called M-HHB/M-KV5
B11: M-KV10 light chain combined with the M-HLG heavy chain (antibody, V domains shown)
VH: EVQLVESGGGLVQPGGSLRLSCAASGFTFSNYWMNWVRQAPGKGLEWVAEIRLKSNNFGRYYAASVKGRFTISRDDSKNTLYLQMNSLKTEDTAVYYCTTYGNYVGHYFDHWGQGTTVTVSS
VL: DIQLTQSPSFLSASVGDRVTITCRASQNVDTNLAWYQQKPGQAPRPLIYSASYRYTGVPSRFSGSGSGTEFTLTISSLQPEDFATYYCQQYNSYPLTFGGGTKVEIKR
notes: also called M-HLG/M-KV10
B12: M-KV9 light chain combined with the M-HHB heavy chain (antibody, V domains shown)
VH: EVQLVESGGGLVKPGGSLRLSCAASGFTFSNYWMNWVRQAPGKGLEWVGEIRLKSNNFGRYYAESVKGRFTISRDDSKNTLYLQMNSLKTEDTAVYYCTSYGNYVGHYFDHWGQGTTVTVSS
VL: DIQLTQSPSFLSASVGDRVTITCKASQNVDTNVAWYQQKPGQAPRPLIYSASYRYTGVPSRFSGSGSGTEFTLTISSLQPEDFATYYCQQYNSYPLTFGGGTKVEIKR
notes: also called M-KV9 with M-HHB; M-HHB/M-KV9
B13: M-HHC heavy chain coexpressed with murine 225.28S light chain (mVL) (antibody, V domains shown)
VH: EVQLVESGGGLVKPGGSLRLSCAASGFTFSNYWMNWVRQAPGKGLEWVANIRLKSNNFGRYYAESVKGRFTISRDDSKNTLYLQMNSLKTEDTAVYYCTSYGNYVGHYFDHWGQGTTVTVSS
VL: DIELTQSPKFMSTSVGDRVSVTCKASQNVDTNVAWYQQKPGQSPEPLLFSASYRYTGVPDRFTGSGSGTDFTLTISNVQSEDLAEYFCQQYNSYPLTFGGGTKLEIK
notes: also called M-HHC/mVL
B14: M-HHA heavy chain coexpressed with murine 225.28S light chain (mVL) (antibody, V domains shown)
VH: EVQLVESGGGLVKPGGSLRLSCAASGFTFSNYWMNWVRQAPGKGLEWVGEIRLKSNNFGRYYAASVKGRFTISRDDSKNTLYLQMNSLKTEDTAVYYCTTYGNYVGHYFDHWGQGTTVTVSS
VL: DIELTQSPKFMSTSVGDRVSVTCKASQNVDTNVAWYQQKPGQSPEPLLFSASYRYTGVPDRFTGSGSGTDFTLTISNVQSEDLAEYFCQQYNSYPLTFGGGTKLEIK
notes: also called M-HHA/mVL
B15: M-KV12 light chain combined with the M-HLG heavy chain (antibody, V domains shown)
VH: EVQLVESGGGLVQPGGSLRLSCAASGFTFSNYWMNWVRQAPGKGLEWVAEIRLKSNNFGRYYAASVKGRFTISRDDSKNTLYLQMNSLKTEDTAVYYCTTYGNYVGHYFDHWGQGTTVTVSS
VL: DIQLTQSPSFLSASVGDRVTITCKASQNVDTNVAWYQQKPGQAPRPLIYSASYLQSGVPSRFSGSGSGTEFTLTISSLQPEDFATYYCQQYNSYPLTFGGGTKVEIKR
notes: also called M-HLG/M-KV12
B16: M-HLG heavy chain paired with the light chain construct M-KV4 (antibody, V domains shown)
VH: EVQLVESGGGLVQPGGSLRLSCAASGFTFSNYWMNWVRQAPGKGLEWVAEIRLKSNNFGRYYAASVKGRFTISRDDSKNTLYLQMNSLKTEDTAVYYCTTYGNYVGHYFDHWGQGTTVTVSS
VL: DIQLTQSPSFLSASVGDRVTITCKASQNVDTNVAWYQQKPGKAPEPLLFSASYRYTGVPSRFSGSGSGTEFTLTISSLQPEDFATYYCQQYNSYPLTFGGGTKVEIKR
notes: also called M-HLG/M-KV4
B17: M-KV7 light chain paired with the M-HHB heavy chain (antibody, V domains shown)
VH: EVQLVESGGGLVKPGGSLRLSCAASGFTFSNYWMNWVRQAPGKGLEWVGEIRLKSNNFGRYYAESVKGRFTISRDDSKNTLYLQMNSLKTEDTAVYYCTSYGNYVGHYFDHWGQGTTVTVSS
VL: DIQLTQSPSFLSASVGDRVTITCKASQNVDTNVAWYQQKPGKAPKPLIYSASYRYTGVPSRFSGSGSGTEFTLTISSLQPEDFATYYCQQYNSYPLTFGGGTKVEIKR
notes: also called M-KV7 antibody; M-HHB/M-KV7
B18: M-KV6 light chain paired with the M-HHB heavy chain (antibody, V domains shown)
VH: EVQLVESGGGLVKPGGSLRLSCAASGFTFSNYWMNWVRQAPGKGLEWVGEIRLKSNNFGRYYAESVKGRFTISRDDSKNTLYLQMNSLKTEDTAVYYCTSYGNYVGHYFDHWGQGTTVTVSS
VL: DIQLTQSPSFLSASVGDRVTITCKASQNVDTNVAWFQQRPGQSPRRLIYSASYRYTGVPSRFSGSGSGTEFTLTISSLQPEDFATYYCQQYNSYPLTFGGGTKVEIKR
notes: also called M-HHB/M-KV6
B19: M-KV4 light chain paired with the M-HHB heavy chain (antibody, V domains shown)
VH: EVQLVESGGGLVKPGGSLRLSCAASGFTFSNYWMNWVRQAPGKGLEWVGEIRLKSNNFGRYYAESVKGRFTISRDDSKNTLYLQMNSLKTEDTAVYYCTSYGNYVGHYFDHWGQGTTVTVSS
VL: DIQLTQSPSFLSASVGDRVTITCKASQNVDTNVAWYQQKPGKAPEPLLFSASYRYTGVPSRFSGSGSGTEFTLTISSLQPEDFATYYCQQYNSYPLTFGGGTKVEIKR
notes: also called M-HHB/M-KV4

T1 sequence (Q6UVK1 30-2322): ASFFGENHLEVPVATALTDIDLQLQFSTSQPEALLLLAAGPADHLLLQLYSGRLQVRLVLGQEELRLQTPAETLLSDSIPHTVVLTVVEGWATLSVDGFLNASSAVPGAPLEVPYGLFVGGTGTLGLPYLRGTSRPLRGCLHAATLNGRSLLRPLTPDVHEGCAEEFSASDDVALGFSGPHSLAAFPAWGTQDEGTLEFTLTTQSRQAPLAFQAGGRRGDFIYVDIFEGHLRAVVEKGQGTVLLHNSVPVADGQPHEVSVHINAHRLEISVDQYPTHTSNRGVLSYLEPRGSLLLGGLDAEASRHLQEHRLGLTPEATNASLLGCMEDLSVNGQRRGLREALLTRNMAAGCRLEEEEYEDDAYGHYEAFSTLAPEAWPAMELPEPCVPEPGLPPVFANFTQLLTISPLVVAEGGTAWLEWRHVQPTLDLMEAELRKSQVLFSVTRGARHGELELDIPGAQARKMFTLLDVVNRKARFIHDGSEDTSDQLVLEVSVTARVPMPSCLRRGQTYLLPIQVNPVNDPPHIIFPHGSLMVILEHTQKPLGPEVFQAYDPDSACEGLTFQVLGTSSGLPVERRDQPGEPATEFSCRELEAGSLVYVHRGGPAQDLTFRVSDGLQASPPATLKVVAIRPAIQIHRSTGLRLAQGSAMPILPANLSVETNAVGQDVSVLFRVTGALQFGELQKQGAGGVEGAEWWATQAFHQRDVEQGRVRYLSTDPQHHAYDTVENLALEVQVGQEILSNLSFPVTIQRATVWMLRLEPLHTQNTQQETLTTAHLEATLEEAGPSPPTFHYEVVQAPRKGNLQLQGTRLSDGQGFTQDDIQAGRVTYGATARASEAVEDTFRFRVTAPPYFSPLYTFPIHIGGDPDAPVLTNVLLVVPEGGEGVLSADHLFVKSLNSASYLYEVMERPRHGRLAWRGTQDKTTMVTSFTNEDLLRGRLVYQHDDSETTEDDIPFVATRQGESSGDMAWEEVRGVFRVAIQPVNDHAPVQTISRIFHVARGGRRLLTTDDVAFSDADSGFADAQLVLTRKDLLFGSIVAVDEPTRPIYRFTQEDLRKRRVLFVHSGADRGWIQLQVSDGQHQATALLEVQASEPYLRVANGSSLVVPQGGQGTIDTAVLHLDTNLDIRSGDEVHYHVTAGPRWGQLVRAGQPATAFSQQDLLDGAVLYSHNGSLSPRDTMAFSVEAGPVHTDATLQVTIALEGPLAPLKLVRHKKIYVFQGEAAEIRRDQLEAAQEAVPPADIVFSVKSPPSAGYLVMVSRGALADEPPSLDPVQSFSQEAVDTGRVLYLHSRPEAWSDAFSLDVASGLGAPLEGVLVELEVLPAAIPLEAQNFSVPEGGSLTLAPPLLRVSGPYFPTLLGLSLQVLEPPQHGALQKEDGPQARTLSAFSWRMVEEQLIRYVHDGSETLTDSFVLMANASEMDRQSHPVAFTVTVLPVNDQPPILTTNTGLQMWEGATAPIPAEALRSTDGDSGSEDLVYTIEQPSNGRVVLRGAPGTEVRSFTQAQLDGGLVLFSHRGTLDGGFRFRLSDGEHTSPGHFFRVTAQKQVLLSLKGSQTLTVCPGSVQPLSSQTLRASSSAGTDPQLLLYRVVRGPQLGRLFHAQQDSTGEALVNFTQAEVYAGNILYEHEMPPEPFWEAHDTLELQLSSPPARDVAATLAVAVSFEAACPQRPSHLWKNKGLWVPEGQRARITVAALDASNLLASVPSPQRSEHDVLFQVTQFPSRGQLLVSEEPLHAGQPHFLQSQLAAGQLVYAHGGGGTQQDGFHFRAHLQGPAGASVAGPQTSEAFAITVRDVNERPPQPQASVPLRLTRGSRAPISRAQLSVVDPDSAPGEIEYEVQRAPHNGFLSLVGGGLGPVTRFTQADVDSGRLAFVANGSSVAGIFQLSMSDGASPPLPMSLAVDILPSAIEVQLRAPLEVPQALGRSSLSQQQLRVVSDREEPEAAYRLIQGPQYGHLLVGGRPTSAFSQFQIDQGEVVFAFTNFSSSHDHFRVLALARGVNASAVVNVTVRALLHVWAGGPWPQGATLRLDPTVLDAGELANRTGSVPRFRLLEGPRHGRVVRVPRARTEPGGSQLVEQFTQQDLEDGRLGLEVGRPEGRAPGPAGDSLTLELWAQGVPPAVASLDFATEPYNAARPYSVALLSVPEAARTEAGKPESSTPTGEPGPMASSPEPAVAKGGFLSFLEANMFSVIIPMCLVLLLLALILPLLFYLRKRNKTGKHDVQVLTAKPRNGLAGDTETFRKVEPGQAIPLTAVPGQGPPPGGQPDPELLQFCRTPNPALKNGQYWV

The assay has as its target T1, human melanoma chondroitin sulfate proteoglycan (MCSP) (human, UniProt Q6UVK1 30-2322).
T1 construct: whole, on cells; also called HMW-MAA; high molecular weight-melanoma-associated antigen
The assay is described as follows: flow cytometry on A375 human melanoma cells. Here is the method: The purified, monomeric humanized antibody variants were tested for binding to the human HMW-MAA/MCSP antigen on the A375 human melanoma cell line, using a flow cytometry-based assay. 200,000 cells (in 180 μl FACS buffer (PBS containing 2% FCS and 5 mM EDTA) were transferred to 5 ml polystyrene tubes and 20 μl 10 fold concentrated anti-MCSP antibody (primary antibody) samples (1-5000 ng/ml final concentration) or PBS only were added. After gently mixing the samples, the tubes were incubated at 4° C. for 30 min in the dark. Subsequently, samples were washed twice with FACS buffer and pelleted at 300 g for 3 min. Supernatant was aspirated off and cells were taken up in 50 μl FACS buffer and 2 μl secondary antibody (anti-Fc-specific F(ab′)2-FITC fragments (Jackson Immuno Research Laboratories, USA)) was added and the tubes were incubated at 4° C. for 30 min. Samples were washed twice with FACS buffer and taken up in 500 μl of FACS buffer for analysis by Flow Cytometry. Binding was determined by plotting the geometric mean fluorescence against the antibody concentrations.
With B1, the binding result is on record as “binds”.
As for B2, the entry is “no binding (tested: 1-5000 ng/ml final concentration)”.
With B3, the binding result was “no binding (tested: 1-5000 ng/ml final concentration)”.
As for B4, the entry is “binds”; as for B5, “binds”.
For B6, the binding result was “no binding (tested: 1-5000 ng/ml final concentration)”.
As for B7, the entry is “binds”; as for B8, “binds”; as for B9, “binds”.
As for B10, the entry is “no binding (tested: 1-5000 ng/ml final concentration)”; as for B11, “binds”.
On to B12, for which the binding result is reported as “binds”.
As for B13, the entry is “binds”; as for B14, “binds”; as for B15, “binds”.
As for B16, the entry is “binds”; as for B17, “binds”; as for B18, “no binding (tested: 1-5000 ng/ml final concentration)”.
As for B19, the entry is “binds”.
